The nature of the series: soluble on expression in E. coli; label from the status in PepcDB or PDB records.
For “MELVAYAMAAKLITETVQITINSISETLETINSDPTVRIDNLNELKRRNDEAHSQYMKELKEAREESDDALAKRQATADSQISELINSNNEAIRELQKKFDEDAAAYDRSIKETTREHDQKMKEMRSETREAQEKAERNHREKMSKIKEDHDKERVAALQKIDAAKKEGAEMIALVEMEKQKIVRERADEMNEHHKNMETMTKEYHQKREEIHEVIKNKKLDILKDKREHQRIEHEKISENMKNAFNALLNVQRENNAKHLVSNFQQLFEPVEDVKKLLDSVKIKIELVDGKDPKIEAEQLYDLEEIQAKKSIFENRIRRLRSILIHSSFTDRKLHEICSTTISNIETLMNKSDILSVCHHFPRAVEKQDLKKIKHYADMARSLSDTFSQELGNIIDTFSTSSGMYIIEKEHQEAIEN”, the “soluble on expression in E. coli” value is reported as “soluble”.

Consider “MDKESVDTLFGMGLTAYQAKDYTKAIHALEHLREHDPSYTTLYSYLAKSYEENGEPEKAIAVLRDGLTQDEFNKEMFLEAGKLAVTLRLPEEAEEFYRQAIVLDEEFSEAIMQLNKLLLAKENYEGVIELVEGLGEEVISEPQIFWDVSVAYQETEQYNKAKANYELAYPHFTNNPTFLKEYGLFLREEGEHAKSQEVLRSYLELEPEDTEILSLFDLEHHHHHH”, for which the “soluble on expression in E. coli” value is listed as “soluble”.

As for “MGSDKIHHHHHHMSDIVIKAENLGKKYIIGHQAENGRYQALRDVLMHNAQTLWNKTKDLAKGNPLIHGDTLEEVWALKDVSFEIRRGEAVGIIGRNGAGKSTLLKILSRITDPSAGRVTIDGRVASLLEVGTGFHPELSGRENIYLNGTILGMSRKEINQKFDEIVDFAGIEKYLDTPVKRYSSGMYVRLAFAVAAHLEPEILVVDEVLAVGDAEFQKKCLGKMGDVTKEGRTVLFVSHNMVALSALCFRSINLDSGKIIYNGHVDTGVLIYMNGLSNIDNPISYKTRSATGTGEMKIINSFLLRNGKPTLSNVACGDKVDICIEFECCTEKPRFHFALDIYNSKGNRIAYCNSLYTMGVSWVQLPKIFLAKCSFPKLPFFPDEYRVDISIHCNDERADYLQGALSLKVYEGDFYGSGKIPPISGASPIMLLEHKWTIDN”, the “soluble on expression in E. coli” value is “not soluble”.

In the case of “MLNSWPLAKDLQVLVEIVHSGSFSAAAATLGQTPAFVTKRIQILENTLATTLLNRSARGVALTESGQRCYEHALEILTQYQRLVDDVTQIKTRPEGMIRIGCSFGFGRSHIAPAITELMRNYPELQVHFELFDRQIDLVQDNIDLDIRINDEIPDYYIAHLLTKNKRILCAAPEYLQKYPQPQSLQELSRHDCLVTKERDMTHGIWELGNGQEKKSVKVSGHLSSNSGEIVLQWALEGKGIMLRSEWDVLPFLESGKLVQVLPEYAQSANIWAVYREPLYRSMKLRVCVEFLAAWCQQRLGKPDEGYQVM”, the “soluble on expression in E. coli” value is “soluble”.

“RGSGWFAGFPVYSWFFGRDGLWMALAANMVGLAGLTYEHTNMLLKYSDDGRIPHEIGLADDGDQGYTIGETKFNTMYMSIDSSPLWLLASASMENWDRSRFEERHLKKVFDFIASCDTDGDGLIENDFRRGLIGWPETWANIRNGKTVDVNALWIEVLRIFGYRFGYDEYQKIRDRYMSTFFAGANSVDFVDMEYHEIRSAMQFVPGIFMRNEAIRSRIKDLSAGMMTPWGIRSMSVYDPMYDGGYHTGTVWPLMTGWFVIAAYKNGLPDLAFNQMRTFVDLAFSADDPGRINETYDAMMPQPTGQFAQGWSSSMLLLSVLQGMLNIDPLS”: the “soluble on expression in E. coli” value is recorded as “not soluble”.

“MDTQDPLSQKYAISMLFFLLDRGNVKQFELLKIISSNMTIEKLSKILEEAGLINIKREFTGRKSYSFSLTPKGRLVAEQLKKAEEIAQKPSAEIEESVEKIELLLANEEAERIREWSFLLHINIMDDHITEEISGKSPRFFNIYIKRNGNGEFLLWCEQDNSYDCWHVKAAWTYPEVQKMMMHYKGKVKICHICGYENAEEGKFCTNCGTKLE”: the “soluble on expression in E. coli” value is listed as “not soluble”.

In the case of “GMEGLVMNTRRALFADWRVREAMLLAFDFDLINRTLTGGAEPRIASYFSNSALGMEAGAPATGRERALLEPFAADLLPGTLDGYALPATHGASNRGNLRKAARLLSEAGWRIEDGMLEGPGGTPFAFEILLPQGADAMIAASIIYRQALTRLGISARITTVDPAQFKQRVDNQDFDMTSFLRSLTLSPGNEQLLYWSAEDKDLPGSRNLMGMESPAAEAVIRHMLATDDAEEFQASVRALDRVLTAGRYVIPMWYSR”, the “soluble on expression in E. coli” value is on record as “not soluble”.

Take “MGDQPFIPPPQQTALTVNDHDEVTVWNAAPCPMLPRDQVYVRVEAVAINPSDTKMRGQFATPWAFLGTDYAGTVVAVGSDVTHIQVGDRVYGAQNEMCPRTPDQGAFSQYTVTRGRVWAKIPKGLSFEQAAALPAGISTAGLAMKLLGLPLPSPSADQPPTHSKPVYVLVYGGSTATATVTMQMLRLSGYIPIATCSPHNFDLAKSRGAEEVFDYRAPNLAQTIRTYTKNNLRYALDCITNVESTTFCFAAIGRAGGHYVSLNPFPEHAATRKMVTTDWTLGPTIFGEGSTWPAPYGRPGSEEERQFGEDLWRIAGQLVEDGRLVHHPLRVVQGGFDHIKQGMELVRKGELSGEKLVVRLEGPLEHHHHHH”: the “soluble on expression in E. coli” value is “soluble”.

Consider “MSSAPNDDCEIDKGTPSTASLFTTLMLSQPSSSTAVLQCTYCGSSCTSSQLQTCLFCGTVAYCSKEHQQLDWLTHKMICKSLQTSGMVPSNLMPQAAPAVMAPIPPTVSFDDPALTTSLLLSLQNNPILNQTISNFPPTFSITSKTEPEPSIPIQIPQRISSTSTVPFSSEGSAFKPYRNTHVFNSISSESMSSMCTSHEASLEHMSSASLAMFPTSSTAQSDISRLAQVLSLAGDSPASLALVTTSVPSTASTATIPPPATTTSSATSSGKSETITVGKEKIIQTDDPDIQIIETEGGSKPTVSRTRKRPTPSNSADPKINYKDHNKNVVYSTTLQEHQKHLQNRGLALSIHQAMVLRLRYIAEHVIRSLNEFGWAVVDNFLGSDHYKFTAKEIERLYERGLFSPGQLMEAKHKDEFHIKDIRSDHIYWYDGYDGRAKDAATVRLLISMIDSVIQHFKKRIDHDIGGRSRAMLAIYPGNGTRYVKHVDNPVKDGRCITTIYYCNENWDMATDGGTLRLYPETSMTPMDIDPRADRLVFFWSDRRNPHEVMPVFRHRFAITIWYMDKSERDKALAKGKESDAACASKKENDPTSSSLNSLIGSLLRPRKNPSTHDLSKLDLRLFPSTSSDPALVSAADEDRVDISADFQSTSSLAHPESTDSGVSLSTFNVAHNHMERTTSLQSISDHFRSERSHERRSSTSSDQDLDEGLPPPPSTNPEYYI”, for which the “soluble on expression in E. coli” value is given as “not soluble”.

Turning to “MLKSEDADYEKAMKDKVGTGPQEYLKQLSDSLVKNQSAASVEVVSGATHSSDAFINYANQLIQAAQKADTTTISINNLAKMEDGTYKLEEQNYAHGYRVVFSMDVKDGKITKSDYNYVDKDGKLKSDDADYEKNMKAKSGTGPKEYIPALNKSLVEKQDVAAVDTVSGATNSSNQFKIYAAQLQNAAQNGNTDTIKVYNLVEAELEHHHHHH”, the “soluble on expression in E. coli” value is recorded as “soluble”.

Consider “MDKPVDKPAKGKRPAAAGRGSKPRSASAERVRRHREKMKAMGLKPVTIWVPEDYNSPEYKAEIRRECELINADPESEIVLEGMWELADFGDWKA”, for which the “soluble on expression in E. coli” value is recorded as “not soluble”.

Take “MAALRVPLSQQQLEQLKANKKWGEYVEAQAGQKYEHFTSPYKQSMLTVKEWIMPQGLVIYVRTDDGTYPARVVNAGPDNICVRIVKANKSDPEPETQISYDQVIKSTEVLKMEPLKFKWIRKKTDNLYSIEAFQNLSGFFNKKVFELLKKGDFMEYQHDDEPWKCTIVEIIENHNGLIFIRNGLFVRCVHMFSPFCHELGWADKLKETNDERAAGMTYKILIKLENDRDQRVIVDRHIFRNNTISPHRFQDLQVLVYLEEDHFYLAHVKCKTRKTGLTDSYFFQISRGTELVRDSLLSDNKMPVQFHLNDARIFGYRDLERLHFPIDLPDGVQKIEGESNVDAYIRTYCLTDKEKARVPRLNESEKRAMFDRKILSNEIGVHMKHGAMLRDSKFNPTAGSLTPWAGTKCAEVSWFLPSSGRTRNRRADLLAARVVKYTEHIAHLYVARLDKTIYMHVADPRLHPAGFADGVNLPIEYSDAFAKDADIEIQISQLEETLDNLACEQDSTKDQN”: the “soluble on expression in E. coli” value was “not soluble”.

For “MLDKNVLNEIGSKVNEILASSPARDVEKNMRAMLTGAFARLDLVTREEFDVQQEVIKRTRIKLAELEEKVRKLEQQLQQPAEVVSSNETGDA”, the “soluble on expression in E. coli” value was “not soluble”.

As for “SDEEKKRRAATARRQHLKSAMLQLAVTEIEKEAAAKEVEKQNYLAEHSPPLSLPGSMQELQELSKKLHAKIDSVDEERYDTEVKLQKTNKELEDLSQKLFDLRGKFKRPPLRRVRMSADAMLRALLGSKHKVNMDLR”, the “soluble on expression in E. coli” value is on record as “soluble”.

For “MGSDKIHHHHHHMNRIGIIGAMQIEIDLLLEKLAIQEKQTIAGMPFYVGEFMGMEVIVTRCGVGKVNAAACTQTLIHKFDVDAIINTGVAGGLHPDVKVGDVVISTNVTHHDVSKTQMKNLFPFQEEFHASKKLMELARTACNSSSLHIGVHEGRIVSGECFVEDSKLKAKLIDEYAAHCTEMEGAAIGHVAYINEVPFLVIRCISDSADDEAQISYDDFAKTAANYCSEIIVEMLKNISSKTYSSKGGNEMLQAFIFDMDGTLFQTDKILELSLDDTFDHLRSLQLWDTVTPIEKYREIMGVPLPKVWETLLPNHSIEVREQTDAYFLERLIENIKSGKGALYPNVKEIFTYIKENNCSIYIASNGLTEYLRAIVSYYALDQWVTETFSIEQINSLNKSDLVKSILNKYDIKEAAIVGDRLSDINAAKDNGLFAIGCNFDFAQEDELVQADIVIDDLMELKGILPAVQR”, the “soluble on expression in E. coli” value was “not soluble”.

On to “MGSDKIHHHHHHMARIARVIATGIPHHVTQRGNRRMPTFFNDEDYRAYIALLGEWCRKCGVDIWAYCLMPNHVHLIAVPETDDGLRRGIGEAHRRYSRMINFRENWRGHLWQGRFASFPMDESYLLAAARYVEMNPVRARLTPKAALWPWSSARAHLDRMDDELVKVAPLLELVGDWSLFLAGTGEEDQLNDIRKHERTGRPLGTEEFVERLESALERPLKKGKPGPKGNDN”, for which the “soluble on expression in E. coli” value is “not soluble”.

As to “MGSSHHHHHHSSGLVPRGSHMEAPAAVVTGAAKRIGRAIAVKLHQTGYRVVIHYHNSAEAAVSLADELNKERSNTAVVCQADLTNSNVLPASCEEIINSCFRAFGRCDVLVNNASAFYPTPLVQGDHEDNSNGKTVETQVAELIGTNAIAPFLLTMSFAQRQKGTNPNCTSSNLSIVNLCDAMVDQPCMAFSLYNMGKHALVGLTQSAALELAPYGIRVNGVAPGVSLLPVAMGEEEKDKWRRKVPLGRREASAEQIADAVIFLVSGSAQYITGSIIKVDGGLSLVHA”, the “soluble on expression in E. coli” value is reported as “soluble”.

“MERIDSHVSPRYAQIPTFMRLPHDPQPRGYDVVVIGAPYDGGTSYRPGARFGPQAIRSESGLIHGVGIDRGPGTFDLINCVDAGDINLTPFDMNIAIDTAQSHLSGLLKANAAFLMIGGDHSLTVAALRAVAEQHGPLAVVHLDAHSDTNPAFYGGRYHHGTPFRHGIDEKLIDPAAMVQIGIRGHNPKPDSLDYARGHGVRVVTADEFGELGVGGTADLIREKVGQRPVYVSVDIDVVDPAFAPGTGTPAPGGLLSREVLALLRCVGDLKPVGFDVMEVSPLYDHGGITSILATEIGAELLYQYARAHRTQL”: the “soluble on expression in E. coli” value is on record as “soluble”.

For the sequence “MAHHHHHHMFRRLSVCVPFATTARFYTPSEELKKLYASDFERAQFPANIVPSDSVTFAKFLYKAVEPKGSFDTILKDFQTIAAAIPKLPVFWQRTVVVSEVSEFKSLSAPTTFTLEWMQSNGMLDLLPDVAEVYETYVNAKMKRVTAKIYVAAGKEQDRALVDKAKKVAEQVVKDNQQFAGYTLVPKVLVDRSIVEGFAVDVQGTYVNEAVGRKKETQASGEVDYTTIPPPRLSKTTWEDNIETEVLRKYLDSLSLYDAEELKSGV”, the “soluble on expression in E. coli” value is recorded as “soluble”.

These data come from the DeepSol protein solubility set.
